From publication PMC5087089 come the findings set out here.

For test [1], the target named is Y98F HA trimer from A/New Caledonia/20/1999 (H1 1999 NC), soluble trimeric format (influenza A virus A/New Caledonia/20/1999 (H1 1999 NC)). As to the kind of experiment: SEC; size exclusion on a Sepharose 10/300 column. A general note: In gel filtration, larger molecules generally elute earlier.
The target in test [2] is wildtype (WT) HA trimer from A/New Caledonia/20/1999 (H1 1999 NC), soluble trimeric format (influenza A virus A/New Caledonia/20/1999 (H1 1999 NC)) (UniProt Q6WG00). As to the kind of experiment: SEC; size exclusion on a Sepharose 10/300 column.

Regarding “Y98F HA trimer from A/New Caledonia/20/1999 (H1 1999 NC), soluble trimeric format (natural protein)”, in test [1], the stoichiometry N (commonly the number of molecules, sites or subunits per partner or assembly) stood at 3.

For “wildtype (WT) HA trimer from A/New Caledonia/20/1999 (H1 1999 NC), soluble trimeric format (from UniProt Q6WG00 1-565) (natural protein)”, the stoichiometry N in test [2] amounted to 3.
